Publication PMC12382473, “Retinoid X receptor γ interacts with peroxisome proliferator-activated receptor-γ to promote browning during adipose tissue differentiation” (Adipocyte, 2025)

Target: T1, Flag-PPARγ, transfected in HEK293 cells (UniProt P37231 1-505)
T1 sequence (looked up): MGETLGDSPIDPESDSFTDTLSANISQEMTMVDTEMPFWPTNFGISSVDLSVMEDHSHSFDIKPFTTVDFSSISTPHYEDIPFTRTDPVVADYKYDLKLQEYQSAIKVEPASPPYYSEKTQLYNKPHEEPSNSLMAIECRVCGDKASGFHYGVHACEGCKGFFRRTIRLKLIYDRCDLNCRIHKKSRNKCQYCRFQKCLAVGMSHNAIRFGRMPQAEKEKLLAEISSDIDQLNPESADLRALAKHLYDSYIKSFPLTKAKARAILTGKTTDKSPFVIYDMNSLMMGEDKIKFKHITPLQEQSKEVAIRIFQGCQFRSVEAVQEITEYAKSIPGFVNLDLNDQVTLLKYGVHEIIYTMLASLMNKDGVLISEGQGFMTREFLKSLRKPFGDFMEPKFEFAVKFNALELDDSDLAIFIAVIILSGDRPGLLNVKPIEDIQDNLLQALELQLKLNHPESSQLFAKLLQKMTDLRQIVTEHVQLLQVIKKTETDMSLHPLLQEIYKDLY
Assay: cell-based or functional assay

B1: Myc-RXRγ (retinoid X receptor γ), transfected in HEK293 cells (natural protein, UniProt P48443 1-463, looked up)
chain: MYGNYSHFMKFPAGYGGSPGHTGSTSMSPSAALSTGKPMDSHPSYTDTPVSAPRTLSAVGTPLNALGSPYRVITSAMGPPSGALAAPPGINLVAPPSSQLNVVNSVSSSEDIKPLPGLPGIGNMNYPSTSPGSLVKHICAICGDRSSGKHYGVYSCEGCKGFFKRTIRKDLIYTCRDNKDCLIDKRQRNRCQYCRYQKCLVMGMKREAVQEERQRSRERAESEAECATSGHEDMPVERILEAELAVEPKTESYGDMNMENSTNDPVTNICHAADKQLFTLVEWAKRIPHFSDLTLEDQVILLRAGWNELLIASFSHRSVSVQDGILLATGLHVHRSSAHSAGVGSIFDRVLTELVSKMKDMQMDKSELGCLRAIVLFNPDAKGLSNPSEVETLREKVYATLEAYTKQKYPEQPGRFAKLLLRLPALRSIGLKCLEHLFFFKLIGDTPIDTFLMEMLETPLQIT
- luciferase activity of a PPRE reporter in HEK293 cells, RXRγ co-expressed with PPARγ (PPARγ alone 1.6-fold; RXRγ alone no increase): 2.1 fold
- luciferase activity of a UCP1 promoter reporter in HEK293 cells, RXRγ co-expressed with PPARγ (PPARγ alone 1.5-fold; RXRγ alone no increase): 3.4 fold
